Experimental data from patent US20250222125A1, “Anti-FGFR2b Antibodies, Conjugates and Methods of Use” (BeiGene, Ltd., priority 2024, published 2025).

Legend:
human FGFR2b = human FGFR2b (Homo sapiens, UniProt P21802); assay: ELISA protein binding to human FGFR2b (Example 4); conditions: coated protein
Procedure: (§1) The binding affinity and specificity of purified anti-FGFR2b antibodies were determined by ELISA and FACS. […] After incubation and washing, the plates were developed with HRP substrate and absorbance was measured. […] After washing twice with FACS buffer, diluted Alexa Fluor 647 goat anti-human IgG secondary antibody was added and incubated with cells for 30 minutes at 4° C. in the dark. After washing twice with FACS buffer, cells were resuspended with FACS buffer and read using a Becton Dickinson LSR FortessaTM cell analyzer. Non-specific binding of these antibodies was evaluated by FACS binding against parental 293T blank cells. Titration curves were generated using a sigmoidal dose-response of nonlinear fit from GraphPadTM Software by Dotmatics.

Human FGFR2c = Human FGFR2c (Homo sapiens, UniProt P21802); assay: ELISA protein binding to human FGFR2c (Example 4); conditions: coated protein
Procedure: as §1

Human FGFR2b OE cells = molecular target: T1, Human FGFR2b OE cells (Homo sapiens, UniProt P21802); assay: FACS cellular binding, human FGFR2b OE cells (Example 4)
T1 construct: expressed in transfected cells; host or cells: 293T
Procedure: as §1

Murine FGFR2b OE cells = molecular target: T2, Murine FGFR2b OE cells (Mus musculus, UniProt P21803); assay: FACS cellular binding, murine FGFR2b OE cells (Example 4)
T2 construct: expressed in transfected cells; host or cells: 293T
Procedure: as §1

Human FGFR2c OE cells = Human FGFR2c OE cells (Homo sapiens, UniProt P21802); assay: FACS cellular binding, human FGFR2c OE cells (Example 4)
Procedure: as §1

293T blank cells = assay: FACS non-specific binding, parental 293T blank cells (Example 4)
Procedure: as §1

[1] = molecular target: T3, soluble human FGFR2b proteins (Homo sapiens, UniProt P21802); assay: SPR binding kinetics (Biacore 8K, Example 5); conditions: room temperature
T3 construct: soluble human FGFR2b proteins (his tag, in-house generated); His tag; made in house
Procedure: The binding affinity and kinetics of purified anti-FGFR2b antibodies were determined by surface plasmon resonance (Biacore 8K, GE Life Sciences) at room temperature. Briefly, mouse anti-human IgG Fc antibody was immobilized via amine coupling onto a activated CM5 biosensor chip (Cat. No. BR100530, GE Life Sciences). Purified monoclonal antibody candidates were flowed over the chip surface and captured by anti-human IgG antibody. Then a serial dilution of soluble human FGFR2b proteins (his tag, in-house generated) were injected over the antibodies captured surface and changes in surface plasmon resonance signals were analyzed to calculate the association rates (kon) and dissociation rates (koff) by using the one-to-one Langmuir binding model (BIA Evaluation Software, GE Life Sciences). The equilibrium dissociation constant (KD) was calculated as the ratio koff/kon.

BaF3_hFGFR2b OE cells = assay: Ligand-induced proliferation inhibition assay in BaF3_hFGFR2b OE cells; format: cell-based; conditions: antibody 10 μg/ml, heparin 5 μg/ml, 72 hours
Procedure: The inhibition activity of antibody on ligand-induced cell proliferation was evaluated in an FGFR2b engineered BaF3 cell line system (BaF3_hFGFR2b OE). BaF3 cells are dependent on interleukin-3 (IL-3) for growth. The BaF3 system allows for testing of kinases and kinase inhibitors. Some protein kinases can render BaF3 cells to be independent of IL-3, whereas kinase inhibitors antagonize this effect. Cells were seeded in 96-well plates at 30,000 cells/well in RPMI-1640 medium containing 10% fetal bovine serum. Anti-FGFR2b antibodies at a concentration of 10 μg/ml were added to the assay plates. Recombinant human FGF7 or FGF10 protein (40 ng/ml) in the presence of heparin (5 μg/ml) was added to the assay plates. The plates were incubated at 37° C., 5% CO2, 95% humidity in an incubator for 72 hours. Following incubation, 50 μl Cell Titer Glo reagent was added to each well and the plates were mixed for 1 min and then incubated at RT for 10 min. Luminescence signals were detected and recorded.
The Ba/F3 system is used to investigate downstream oncogenic signaling pathways and the susceptibility of driver variants to therapeutics. Driver-addicted Ba/F3 cells die when the driver-engaged signaling pathway is inhibited, and this effect can be rescued by re-introduction of […].
FIGS. 6 and 7 show the results of Ba/F3 proliferation assays. […]

[2] = tested on: phosphorylated FGFR in SNU-16 cells; assay: Inhibition of FGFR2 signaling in SNU-16 cells (Western blot of pFGFR); format: cell-based; conditions: antibody 10 μg/ml, 2 hours
Procedure: Inhibition of the FGFR2 signaling pathway by the humanized antibodies was investigated. SNU-16 cells were grown in RPMI-1640 medium with 10% FBS, collected and washed twice with free medium and then seeded in 12-well plates at 1.5E6 cells/well in serum-free RPMI-1640. The plates were incubated at 37° C., 5% CO2, and 95% humidity in an incubator overnight. Anti-FGFR2b antibodies at a concentration of 10 μg/ml were added to the assay plates. Recombinant human FGF7 or FGF10 protein (10 ng/ml) in the presence of heparin (5 μg/ml) was added to the assay plates. The plates were incubated in a 37° C., 5% CO2, 95% humidity incubator for 2 hours. Following 2 hours incubation, cells were collected and washed twice with cold PBS. NP40 lysis buffer containing 1×PMSF and 1× Protease plus phosphatase inhibitors were added to the cell pellets. The mixture was pipetted up and down to suspend the pellet. The mixture was inverted gently and each placed for 10 minutes on ice, for a total of 30 minutes. The mixture was centrifuged at 12000× rpm for 10 minutes to pellet the cell debris. The supernatant was transferred to a new tube to quantify total protein concentration by BCA Kit. The protein samples were then split and stored at −80° C. for further Western blotting to detect the expression of pFGFR and total FGFR2. […]

[3] = tested on: co-inoculated HSC-39+SNU-5 xenografts; assay: Co-inoculated HSC-39+SNU-5 gastric cancer xenografts; format: in vivo, BALB/c nude mice; conditions: HSC-39:SNU-5 ratios of 2:1 and 5:1, single dose 10 mpk i.v.
Procedure: HSC-39 and SNU-5 were cultured in Dulbecco's modified Eagle's medium (DMEM), supplemented with 10% (v/v) fetal bovine serum, 100 U/ml penicillin, and 100 μg/mL streptomycin. Cells were incubated in a humidified incubator with 5% CO2 at 37° C. On the day of implantation, cells were collected and washed with serum-free medium. Six- to eight-week-old female BALB/c nude mice were purchased and housed in ventilated cages, given food and water ad libitum, and allowed to acclimate for approximately 1 week prior to inoculation. A total of 5×10^6 HSC-39 and SNU-5 cancer cells mixed with matrigel at a ratio of 2:1 or 5:1 were implanted subcutaneously into the mouse flank. […] Tumor volumes were measured twice weekly. Data is presented as mean tumor volume ±standard error of the mean (SEM). In the vehicle group at a 2:1 HSC-39:SNU-5 ratio, there were ˜50% FGFR2b positive cells in the tumor at the starting point with ˜40% at the end point. In the vehicle group at a 5:1 HSC-39:SNU-5 ratio, there were ˜60% FGFR2b positive cells in the tumor at the starting point with ˜20% at the end point.

[4] = patients; cited from earlier work

T3 sequence (P21802 22-378 isoform P21802-3 limits assumed): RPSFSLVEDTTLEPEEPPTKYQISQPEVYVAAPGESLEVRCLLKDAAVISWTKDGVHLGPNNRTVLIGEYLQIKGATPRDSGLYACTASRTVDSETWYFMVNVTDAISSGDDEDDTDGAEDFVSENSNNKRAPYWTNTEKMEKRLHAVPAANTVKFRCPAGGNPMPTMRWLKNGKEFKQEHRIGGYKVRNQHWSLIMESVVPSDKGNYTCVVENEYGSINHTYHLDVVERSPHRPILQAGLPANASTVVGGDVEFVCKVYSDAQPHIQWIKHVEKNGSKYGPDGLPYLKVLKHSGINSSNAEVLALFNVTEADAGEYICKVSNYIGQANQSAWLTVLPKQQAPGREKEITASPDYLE
human FGFR2b, sequence (P21802 22-822 isoform P21802-3 limits assumed): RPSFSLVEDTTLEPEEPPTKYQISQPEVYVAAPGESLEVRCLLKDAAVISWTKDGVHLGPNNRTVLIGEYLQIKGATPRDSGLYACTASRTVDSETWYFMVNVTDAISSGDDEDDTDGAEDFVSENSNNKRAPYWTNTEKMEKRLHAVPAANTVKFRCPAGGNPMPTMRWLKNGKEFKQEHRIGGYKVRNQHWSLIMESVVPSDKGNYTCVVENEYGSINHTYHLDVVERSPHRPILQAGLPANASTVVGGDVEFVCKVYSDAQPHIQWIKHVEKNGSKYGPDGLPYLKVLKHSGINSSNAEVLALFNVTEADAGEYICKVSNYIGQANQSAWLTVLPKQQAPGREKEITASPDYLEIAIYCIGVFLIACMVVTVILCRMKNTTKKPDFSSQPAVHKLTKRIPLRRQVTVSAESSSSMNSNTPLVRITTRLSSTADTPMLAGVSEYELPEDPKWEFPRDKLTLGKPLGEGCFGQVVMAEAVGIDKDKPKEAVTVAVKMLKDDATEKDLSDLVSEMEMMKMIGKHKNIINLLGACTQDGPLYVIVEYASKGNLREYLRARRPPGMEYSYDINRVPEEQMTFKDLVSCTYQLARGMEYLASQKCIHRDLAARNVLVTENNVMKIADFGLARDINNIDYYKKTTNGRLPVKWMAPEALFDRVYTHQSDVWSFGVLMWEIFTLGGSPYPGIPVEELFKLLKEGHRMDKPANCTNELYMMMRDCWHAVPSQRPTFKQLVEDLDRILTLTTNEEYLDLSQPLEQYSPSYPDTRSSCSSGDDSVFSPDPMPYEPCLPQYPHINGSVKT
Human FGFR2c, sequence (P21802 22-821): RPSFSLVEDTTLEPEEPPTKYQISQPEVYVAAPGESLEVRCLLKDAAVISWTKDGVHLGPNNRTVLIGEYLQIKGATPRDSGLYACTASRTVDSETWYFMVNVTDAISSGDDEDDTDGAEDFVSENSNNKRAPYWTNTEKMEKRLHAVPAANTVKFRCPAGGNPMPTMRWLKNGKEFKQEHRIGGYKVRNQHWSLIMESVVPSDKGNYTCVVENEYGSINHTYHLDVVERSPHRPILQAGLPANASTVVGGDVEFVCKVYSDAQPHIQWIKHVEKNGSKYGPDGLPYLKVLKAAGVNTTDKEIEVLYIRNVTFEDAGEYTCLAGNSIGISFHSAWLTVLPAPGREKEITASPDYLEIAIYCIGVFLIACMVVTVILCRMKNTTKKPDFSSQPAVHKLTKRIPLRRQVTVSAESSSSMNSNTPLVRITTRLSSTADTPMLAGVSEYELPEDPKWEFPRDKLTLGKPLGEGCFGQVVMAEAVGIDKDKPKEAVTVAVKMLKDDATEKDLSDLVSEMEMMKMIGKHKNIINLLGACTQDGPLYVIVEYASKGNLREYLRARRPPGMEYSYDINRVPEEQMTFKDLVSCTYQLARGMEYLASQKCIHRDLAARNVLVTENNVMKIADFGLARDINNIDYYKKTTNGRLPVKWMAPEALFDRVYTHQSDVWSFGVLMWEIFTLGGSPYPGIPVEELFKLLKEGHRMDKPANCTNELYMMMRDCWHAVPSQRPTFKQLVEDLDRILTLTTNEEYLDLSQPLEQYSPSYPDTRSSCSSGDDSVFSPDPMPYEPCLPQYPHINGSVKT
Human FGFR2c OE cells, sequence (P21802 22-821): as above
T2 sequence (P21803 22-707 isoform P21803-2 limits assumed): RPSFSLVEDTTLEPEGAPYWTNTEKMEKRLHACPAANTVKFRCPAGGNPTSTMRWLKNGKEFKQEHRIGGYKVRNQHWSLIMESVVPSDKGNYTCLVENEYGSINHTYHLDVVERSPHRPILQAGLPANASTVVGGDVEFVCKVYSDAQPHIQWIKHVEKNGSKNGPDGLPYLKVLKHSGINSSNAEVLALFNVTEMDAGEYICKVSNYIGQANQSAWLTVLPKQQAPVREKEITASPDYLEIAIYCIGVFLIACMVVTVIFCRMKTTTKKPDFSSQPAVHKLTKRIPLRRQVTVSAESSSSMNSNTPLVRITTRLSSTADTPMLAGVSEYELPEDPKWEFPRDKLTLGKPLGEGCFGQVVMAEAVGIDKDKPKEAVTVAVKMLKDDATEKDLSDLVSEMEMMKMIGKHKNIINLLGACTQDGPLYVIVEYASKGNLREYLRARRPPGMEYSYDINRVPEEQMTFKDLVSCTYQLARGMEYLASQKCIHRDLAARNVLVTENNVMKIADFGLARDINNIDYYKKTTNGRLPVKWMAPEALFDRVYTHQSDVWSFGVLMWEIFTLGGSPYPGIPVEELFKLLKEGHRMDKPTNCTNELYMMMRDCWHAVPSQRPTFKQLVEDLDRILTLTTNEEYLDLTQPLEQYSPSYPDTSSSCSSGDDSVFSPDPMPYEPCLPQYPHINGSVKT
T1 sequence (P21802 22-822 isoform P21802-3 limits assumed): as the sequence (P21802 22-822 isoform P21802-3 limits assumed) above

## BGA1421: comparator antibody bemarituzumab, un-conjugated; HC SEQ ID NO: 35, LC SEQ ID NO: 36 [reference compound]
Human FGFR2b
  EC50: 0.61 nM
  Human FGFR2b binding Emax(OD450): 2.62 OD450
Human FGFR2c
  Human FGFR2c binding Emax(OD450): 0.09 OD450
Human FGFR2b OE cells
  EC50: 0.48 nM
Murine FGFR2b OE cells
  EC50: 0.81 nM
Human FGFR2c OE cells
  Human FGFR2c OE cells binding Emax: 40 MFI
293T blank cells
  293T blank cells binding Emax: 18 MFI
[1]; antibody captured
  ka: 104000 M⁻¹ s⁻¹
  kd: 0.00232 s⁻¹
[1]; koff/kon
  Kd: 22.2 nM
BaF3_hFGFR2b OE cells; FGF7 40 ng/ml
  inhibition of FGF7-induced BaF3_hFGFR2b cell proliferation: potently inhibit
BaF3_hFGFR2b OE cells; FGF10 40 ng/ml
  inhibition of FGF10-induced BaF3_hFGFR2b cell proliferation: potently inhibit
[2]; FGF7 10 ng/ml
  FGF7-induced FGFR phosphorylation: down-regulation of phosphorylated FGFR
[2]; FGF10 10 ng/ml
  FGF10-induced FGFR phosphorylation: down-regulation of phosphorylated FGFR
[3]
  tumor growth: inhibited tumor growth but was less potent
[4]
  treatment discontinuation rate caused by corneal toxicity: 26%
